What all share (assay type): cell-based
Data set [1] concerns E. coli MG1655. Kind of data set: Heterologous expression of aldehyde-generating enzyme alone in E. coli, GC-MS of fatty aldehydes and fatty alcohols. The method, then: (§1) The genomic DNA encoding Synechococcus elongatus PCC7942 orf1594 (YP_400611; putative aldehyde-generating enzyme) (SEQ ID NO:65) was amplified and cloned into the NcoI and EcoRI sites of vector OP-80 (pCL1920 derivative) under the control of the Ptrc promoter. The resulting construct (“OP80-PCC7942_1594”) was transformed into E. coli MG1655 and the cells were grown at 37° C. in M9 minimal media with 1% (w/v) glucose as carbon source and supplemented with 100 μg/mL spectinomycin. When the culture reached OD600 of 0.8-1.0, it was induced with 1 mM IPTG and cells were grown for an additional 18-20 h at 37° C. Cells from 0.5 mL of culture were extracted with 0.5 mL of ethyl acetate. After sonication for 60 min, the sample was centrifuged at 15,000 rpm for 5 min. The solvent layer was analyzed by GC-MS as described in Example 1.
The genomic DNA encoding Cyanothece sp. ATCC51142 cce_1430 (YP_001802846; putative aldehyde-generating enzyme) (SEQ ID NO:69) was amplified and cloned into the NcoI and EcoRI sites of vector OP-80 (pCL1920 derivative) under the control of the Ptrc promoter. The resulting construct was transformed into E. coli MG1655 and the cells were grown at 37° C. in M9 minimal media with 1% (w/v) glucose as carbon source and supplemented with 100 μg/mL spectinomycin. The cells were cultured and extracted as in Example 3 and analyzed by GC-MS as described in Example 26.
The genomic DNA encoding P. mariunus CCMP1986 PMM0533 (NP_892651; putative aldehyde-generating enzyme) (SEQ ID NO:71) and Prochlorococcus mariunus CCMP1986 PMM0532 (NP_892650; putative decarbonylase) (SEQ ID NO:19) were amplified and cloned into the NcoI and EcoRI sites of vector OP-80 and the NdeI and XhoI sites of vector OP-183, respectively. The resulting constructs were separately transformed and cotransformed into E. coli MG1655 and the cells were grown at 37° C. in M9 minimal media supplemented with 100 μg/mL spectinomycin and 100 μg/mL carbenicillin. The cells were cultured and extracted as in Example 3 and analyzed by GC-MS as described in Example 26.
The genomic DNA encoding Synechocystis sp. PCC6803 sll0208 (NP_442147; putative fatty aldehyde decarbonylase) (SEQ ID NO:3) was synthesized and cloned into the NdeI and XhoI sites of vector OP-183 (pACYC derivative) under the control of the Ptrc promoter. The genomic DNA encoding Synechocystis sp. PCC6803 sll0209 (NP_442146; acyl-ACP reductase) (SEQ ID NO:67) was synthesized and cloned into the NcoI and EcoRI sites of vector OP-183 (pACYC derivative) under the control of the Ptrc promoter. The resulting constructs were cotransformed with into E. coli MG1655 ΔfadE lacZ::Ptrc ′tesA-fadD. […] The cells were cultured and extracted as in Example 3 and analyzed by GC-MS as described in Example 26.

Data set [2] has as its system E. coli MG1655. Kind of data set: Coexpression of decarbonylase and aldehyde-generating enzyme in E. coli, GC-MS of hydrocarbons. The conditions noted are these: for Production of Alkanes and Alkenes: alkane/alkene biosynthetic polypeptide coexpressed in E. coli with the aldehyde biosynthetic polypeptide of the same table row; for fatty aldehyde decarbonylase activity in E. coli: cotransformed with S. elongatus PCC7942_1594 into E. coli MG1655, M9 minimal media, 37° C.
Text: Seven cyanobacteria, whose complete genome sequences are publicly available, were selected for verification and/or detection of alkane biosynthesis: Synechococcus elongatus PCC7942, Synechococcus elongatus PCC6301, Anabaena variabilis ATCC29413, Synechocystis sp. PCC6803, Nostoc punctiforme PCC73102, Gloeobacter violaceus ATCC 29082, and Prochlorococcus marinus CCMP1986. Only the first three cyanobacterial strains from this list had previously been reported to contain alkanes (Han et al., J. Am. Chem. Soc. 91:5156-5159 (1969); Fehler et al., Biochem. 9:418-422 (1970)). The strains were grown photoautotrophically in shake flasks in 100 mL of the appropriate media (listed in Table 8) for 3-7 days at 30° C. at a light intensity of approximately 3,500 lux. Cells were extracted for alkane detection as follows: cells from 1 mL culture volume were centrifuged for 1 min at 13,000 rpm, the cell pellets were resuspended in methanol, vortexed for 1 min and then sonicated for 30 min. After centrifugation for 3 min at 13,000 rpm, the supernatants were transferred to fresh vials and analyzed by GC-MS. The samples were analyzed on either 30 m DP-5 capillary column (0.25 mm internal diameter) or a 30 m high temperature DP-5 capillary column (0.25 mm internal diameter) using the following method.
After a 1 μL splitless injection (inlet temperature held at 300° C.) onto the GC/MS column, the oven was held at 100° C. for 3 mins. The temperature was ramped up to 320° C. at a rate of 20° C./min. The oven was held at 320° C. for an additional 5 min. The flow rate of the carrier gas helium was 1.3 mL/min. The MS quadrapole scanned from 50 to 550 m/z. Retention times and fragmentation patterns of product peaks were compared with authentic references to confirm peak identity.
as §1
The genomic DNA encoding Synechococcus elongatus PCC7942 orf1593 (YP_400610; putative decarbonylase) (SEQ ID NO:1) was amplified and cloned into the NdeI and XhoI sites of vector OP-183 (pACYC derivative) under the control of the Ptrc promoter. The resulting construct was cotransformed with OP80-PCC7942_1594 into E. coli MG1655 and the cells were grown at 37° C. in M9 minimal media supplemented with 100 μg/mL spectinomycin and 100 μg/mL carbenicillin. The cells were cultured and extracted as in Example 3 and analyzed by GC-MS as described in Example 1. […]

For data set [3], the system named is E. coli MG1655 ΔfadD lacZ::Ptrc-′tesA. Kind of data set: Decarbonylase expression in fatty aldehyde-producing E. coli strain expressing MSMEG_5739. To be noted: coexpressed with M. smegmatis carboxylic acid reductase MSMEG_5739.
Setting [4] is: enzyme expressed alone in E. coli MG1655.

B1: PMM0533: P. mariunus CCMP1986 PMM0533, putative aldehyde-generating enzyme (protein, listed as Prochlorococcus marinus)
chain: MFGLIGHSTSFEDAKRKASLLGFDHIADGDLDVWCTAPPQLVENVEVKSAIGISIEGSYIDSCFVPEMLSRFKTARRKVLNAMELAQKKGINITALGGFTSIIFENFNLLQHKQIRNTSLEWERFTTGNTHTAWVICRQLEMNAPKIGIDLKSATVAVVGATGDIGSAVCRWLINKTGIGELLLVARQKEPLDSLQKELDGGTIKNLDEALPEADIVVWVASMPKTMEIDANNLKQPCLMIDGGYPKNLDEKFQGNNIHVVKGGIVRFFNDIGWNMMELAEMQNPQREMFACFAEAMILEFEKCHTNFSWGRNNISLEKMEFIGAASVKHGFSAIGLDKHPKVLAV
With B1, the “production of fatty aldehydes and fatty alcohols” value in the data set with E. coli MG1655 [1] (setting [4]) is on record as “did not produce any fatty aldehydes or fatty alcohols”.

B2: sll0209: Synechocystis sp. PCC6803 sll0209, acyl-ACP reductase (protein, listed as Synechocystis sp.)
chain: MFGLIGHLTSLEHAQAVAEDLGYPEYANQGLDFWCSAPPQVVDNFQVKSVTGQVIEGKYVESCFLPEMLTQRRIKAAIRKILNAMALAQKVGLDITALGGFSSIVFEEFNLKQNNQVRNVELDFQRFTTGNTHTAYVICRQVESGAKQLGIDLSQATVAVCGATGDIGSAVCRWLDSKHQVKELLLIARNRQRLENLQEELGRGKIMDLETALPQADIIVWVASMPKGVEIAGEMLKKPCLIVDGGYPKNLDTRVKADGVHILKGGIVEHSLDITWEIMKIVEMDIPSRQMFACFAEAILLEFEGWRTNFSWGRNQISVNKMEAIGEASVKHGFCPLVAL
For B2, the “production of fatty aldehydes and fatty alcohols” value with E. coli MG1655 [1] (enzyme expressed alone in E. coli MG1655 ΔfadE lacZ::Ptrc ′tesA-fadD (fatty acyl-CoA-producing)) is on record as “did not produce any fatty aldehydes or fatty alcohols”.

B3: ATCC51142 cce_1430: Cyanothece sp. ATCC51142 cce_1430, putative aldehyde-generating enzyme (protein, listed as Cyanothece sp.)
chain: MFGLIGHLTSLEHAHSVADAFGYGPYATQGLDLWCSAPPQFVEHFHVTSITGQTIEGKYIESAFLPEMLIKRRIKAAIRKILNAMAFAQKNNLNITALGGFSSIIFEEFNLKENRQVRNVSLEFDRFTTGNTHTAYIICRQVEQASAKLGIDLSQATVAICGATGDIGSAVCRWLDRKTDTQELFLIARNKERLQRLQDELGRGKIMGLEEALPEADIIVWVASMPKGVEINAETLKKPCLIIDGGYPKNLDTKIKHPDVHILKGGIVEHSLDIDWKIMETVNMDVPSRQMFACFAEAILLEFEQWHTNFSWGRNQITVTKMEQIGEASVKHGLQPLLSW
Regarding B3, in the data set on E. coli MG1655 [1] (setting [4]), the “production of fatty aldehydes and fatty alcohols” value is reported as “generates aldehydes in-vivo”.

B4: PCC7942 orf1594: Synechococcus elongatus PCC7942 orf1594, putative aldehyde-generating enzyme, named Acyl-ACP reductase (protein, listed as Synechococcus elongatus)
chain: MFGLIGHLTSLEQARDVSRRMGYDEYADQGLEFWSSAPPQIVDEITVTSATGKVIHGRYIESCFLPEMLAARRFKTATRKVLNAMSHAQKHGIDISALGGFTSIIFENFDLASLRQVRDTTLEFERFTTGNTHTAYVICRQVEAAAKTLGIDITQATVAVVGATGDIGSAVCRWLDLKLGVGDLILTARNQERLDNLQAELGRGKILPLEAALPEADFIVWVASMPQGVVIDPATLKQPCVLIDGGYPKNLGSKVQGEGIYVLNGGVVEHCFDIDWQIMSAAEMARPERQMFACFAEAMLLEFEGWHTNFSWGRNQITIEKMEAIGEASVRHGFQPLALAI
Take B4: the “production of fatty aldehydes and fatty alcohols” value in the data set on E. coli MG1655 [1] (setting [4]) is reported as “generates aldehydes in-vivo”.

B5: SEQ ID NO: 52: Synechococcus sp. RS9917 RS9917_09941, putative decarbonylase, codon optimized for E. coli (protein, listed as Synechococcus sp.)
chain: MPTLETSEVAVLEDSMASGSRLPDFTSEAYKDAYSRINAIVIEGEQEAHDNYIALGTLIPEQKDELARLARMEMKHMKGFTSCGRNLGVEADLPFAKEFFAPLHGNFQAALQEGKVVTCLLIQALLIEAFAISAYHIYIPVADPFARKITEGVVKDEYTHLNYGQEWLKANFEASKDELMEANKANLPLIRSMLEQVAADAAVLQMEKEDLIEDFLIAYQEALCEIGFSSRDIARMAAAALAV
For B5, in the data set on E. coli MG1655 [2], the “Production of Alkanes and Alkenes” value is given as “yes”; the “fatty aldehyde decarbonylase activity in E. coli” value is “active fatty aldehyde decarbonylase”. In data set [3], the “conversion of fatty aldehydes provided by MSMEG_5739 to alkanes” value (“conversion of fatty aldehydes provided” below) is on record as “converted fatty aldehydes provided by MSMEG_5739 to the corresponding alkanes”.

B6: SEQ ID NO: 53: Synechococcus sp. RS9917 RS9917_12945, putative decarbonylase, codon optimized for E. coli (protein, listed as Synechococcus sp.)
chain: MTQLDFASAAYREAYSRINGVVIVGEGLANRHFQMLARRIPADRDELQRLGRMEGDHASAFVGCGRNLGVVADLPLARRLFQPLHDLFKRHDHDGNRAECLVIQGLIVECFAVAAYRHYLPVADAYARPITAAVMNDESEHLDYAETWLQRHFDQVKARVSAVVVEALPLTLAMLQSLAADMRQIGMDPVETLASFSELFREALESVGFEAVEARRLLMRAAARMV
Take B6: in the data set on E. coli MG1655 [2], the “Production of Alkanes and Alkenes” value was “yes”; the “fatty aldehyde decarbonylase activity in E. coli” value was “active fatty aldehyde decarbonylase”. Moreover, the “conversion of fatty aldehydes provided” value in data set [3] is “converted fatty aldehydes provided by MSMEG_5739 to the corresponding alkanes”.

B7: SEQ ID NO: 19: Prochlorococcus marinus CCMP1986 PMM0532, putative decarbonylase (protein, listed as Prochlorococcus marinus)
chain: MQTLESNKKTNLENSIDLPDFTTDSYKDAYSRINAIVIEGEQEAHDNYISLATLIPNELEELTKLAKMELKHKRGFTACGRNLGVQADMIFAKEFFSKLHGNFQVALSNGKTTTCLLIQAILIEAFAISAYHVYIRVADPFAKKITQGVVKDEYLHLNYGQEWLKENLATCKDELMEANKVNLPLIKKMLDQVSEDASVLAMDREELMEEFMIAYQDTLLEIGLDNREIARMAMAAIV
B7: in the data set with E. coli MG1655 [2], the “Production of Alkanes and Alkenes” value is listed as “yes”; the “fatty aldehyde decarbonylase activity in E. coli” value is recorded as “active fatty aldehyde decarbonylase”. In addition, the “conversion of fatty aldehydes provided” value in data set [3] is “converted fatty aldehydes provided by MSMEG_5739 to the corresponding alkanes”.
